Experimental data taken from paper PMC7346168, “Redox Conformation-Specific Protein–Protein Interactions of the 2-Cysteine Peroxiredoxin in Arabidopsis” (Antioxidants, 2020).
Changes are numbered by the printed parent chain. Values belong to the binder of their own block, whether it stands above or below them.

Key:
[1] = molecular target: T1, 2-cysteine peroxiredoxin A, wild type (2-CysPRXA WT) (Arabidopsis, UniProt Q96291 66-266); assay: cell-based or functional assay
T1 sequence (looked up): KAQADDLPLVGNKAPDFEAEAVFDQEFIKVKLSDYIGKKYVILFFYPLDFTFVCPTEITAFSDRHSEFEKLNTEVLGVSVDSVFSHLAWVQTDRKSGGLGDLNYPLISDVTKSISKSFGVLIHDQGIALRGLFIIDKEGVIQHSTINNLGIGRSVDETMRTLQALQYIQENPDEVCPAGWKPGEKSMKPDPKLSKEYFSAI

[2] = molecular target: T2, 2-cysteine peroxiredoxin A, wild type (2-CysPRXA WT) (Arabidopsis, UniProt Q96291 66-266); assay: ITC; reduced (unit printed as M)
T2 chain: T1 sequence (looked up)

[3] = molecular target: T1, 2-cysteine peroxiredoxin A, wild type …; assay: ITC; LOX2 injected into 2-CysPRX WT under reducing conditions (proteins treated with 10 mM DTT, dialysed); 35 mM HEPES pH 8.0; details: both partners purified
[4] = molecular target: T3, 2-CysPRXA C54S (pseudo-reduced variant) (Arabidopsis, UniProt Q96291 66-266, C54S); assay: ITC; oxidized (unit printed as M)
T3 sequence: T1 sequence (looked up) with C54S

[5] = molecular target: T4, 2-CysPRXA C54S (pseudo-reduced variant) (Arabidopsis, UniProt Q96291 66-266, C54S); assay: ITC; CP12-1 injected into 2-CysPRXA C54S under oxidizing conditions (proteins treated with 1 mM H2O2, dialysed); 35 mM HEPES pH 8.0; details: both partners purified
T4 construct: 2-Cys peroxiredoxin A, Arabidopsis; source: E. coli BL21, recombinant (pET28a)
T4 sequence (looked up): T1 sequence (looked up) with C54S

- LOX2-catalysed peroxidation of α-linolenic acid (absorbance at 234 nm), 0.5 µM LOX2 with 0.5 µM oxidized 2-CysPRXA; rate against LOX2 alone [1]: 2.4 fold
- LOX2-catalysed peroxidation of α-linolenic acid (absorbance at 234 nm), 0.5 µM LOX2 with 0.5 µM reduced 2-CysPRXA; rate against LOX2 alone [1]: 1.4 fold
- Ka [2]: 4.18e+07 M⁻¹
- stoichiometry N [3]: ~1
B1: LIPOXYGENASE 2, recombinant hisx6-tagged (enzyme, Arabidopsis thaliana, UniProt P38418 71-896, looked up)
chain: QNIKVKGYITAQEEFLEGITWSRGLDDIADIRGRSLLVELISAKTDQRITVEDYAQRVWAEAPDEKYECEFEMPEDFGPVGAIKIQNQYHRQLFLKGVELKLPGGSITFTCESWVAPKSVDPTKRIFFSDKSYLPSQTPEPLKKYRKEELETLQGKNREEVGEFTKFERIYDYDVYNDVGDPDNDPELARPVIGGLTHPYPRRCKTGRKPCETDPSSEQRYGGEFYVPRDEEFSTAKGTSFTGKAVLAALPSIFPQIESVLLSPQEPFPHFKAIQNLFEEGIQLPKDAGLLPLLPRIIKALGEAQDDILQFDAPVLINRDRFSWLRDDEFARQTLAGLNPYSIQLVEEWPLISKLDPAVYGDPTSLITWEIVEREVKGNMTVDEALKNKRLFVLDYHDLLLPYVNKVRELNNTTLYASRTLFFLSDDSTLRPVAIELTCPPNINKPQWKQVFTPGYDATSCWLWNLAKTHAISHDAGYHQLISHWLRTHACTEPYIIAANRQLSAMHPIYRLLHPHFRYTMEINARARQSLVNGGGIIETCFWPGKYALELSSAVYGKLWRFDQEGLPADLIKRGLAEEDKTAEHGVRLTIPDYPFANDGLILWDAIKEWVTDYVKHYYPDEELITSDEELQGWWSEVRNIGHGDKKDEPWWPVLKTQDDLIGVVTTIAWVTSGHHAAVNFGQYGYGGYFPNRPTTTRIRMPTEDPTDEALKEFYESPEKVLLKTYPSQKQATLVMVTLDLLSTHSPDEEYIGEQQEASWANEPVINAAFERFKGKLQYLEGVIDERNVNITLKNRAGAGVVKYELLKPTSEHGVTGMGVPYSISI
notes: Lipoxygenase 2, Arabidopsis thaliana; the limits follow from them; also called LOX2; 13-LIPOXYGENASE; source: E. coli BL21, recombinant (pET15b)

- Ka [4]: 3.91e+06 M⁻¹
- stoichiometry N [5]: ~1
B2: CHLOROPLAST PROTEIN 12-1, recombinant hisx6-tagged (natural protein, Arabidopsis thaliana, UniProt O22914 48-124, looked up)
chain: TSEGEISEKVEKSIQEAKETCADDPVSGECVAAWDEVEELSAAASHARDKKKAGGSDPLEEYCNDNPETDECRTYDN
notes: Calvin cycle protein CP12-1, Arabidopsis thaliana; also called CP12-1; CHLOROPLAST REGULATOR; source: E. coli BL21, recombinant
